Seven molecules from patent publication US11156615B2 (priority 2015, dated 2021) can be followed below.

Series [1] in a line: Galactose binding: isothermal fluorescence titrations of conjugates. Conditions: for S, selectivity = trueKd(galactose)/trueKd(glucose): S > 1, selective for glucose; for Kd: read-out: Galactose trueKd, monochromatic titration curves, room temperature.
A short description of series [2]: Thermostability: mid-point thermal denaturation temperature (Tm) from temperature-dependent fluorescence (Roche LightCycler). In kind it is physicochemical. To be noted: apo-protein. In outline:
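Unfolding tracked by SYPRO binding to denatured protein, fluorescence at 488 nm/510 nm recorded on a LightCycler as temperature rose in 1 K steps. Tm taken as denaturation mid-point, for protein in solution or immobilized on Ni-NTA or NHS-agarose beads.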

Series [3] can be described thus: Glucose binding: isothermal fluorescence titrations, ratiometric (appKd) and monochromatic (trueKd) fits. Conditions: room temperature. The source says:
2 For a single glucose-binding site, the fractional saturation is given by
[formula] where ^apoIλ2 and ^satIλ2 are the emission intensities of the monochromatic signal at wavelength λ2 of the ligand-free and ligand-bound protein, respectively.

Series [4] in a line: Glucose-dependent fluorescence emission intensity spectra of conjugates (Nanodrop3300). The series is classed as biochemical. Conditions: Nanodrop3300. The text has this: Semi-synthetic FRSs were engineered by site-specifically attaching thiol-reactive, environmentally sensitive fluorophores that respond to ligand-mediated conformational changes. Identification of FRS candidates that are useful for sensing applications comprises three steps: • 1. Cysteine scan. Mutant glucose-binding proteins containing single cysteines are constructed for site-specific attachment of thiol-reactive fluorophores. […] Candidate positions fall into three classes: endosteric, replacing a residue that contacts the ligand directly; peristeric, located at the rim of the binding site; allosteric (Marvin et al. 1997 Proc Natl Acad Sci USA, 94, 4366-71; Marvin 1998 J Am Chem Soc, 120, 7-11), located outside the binding site at sites that undergo local structural changes in concert with the hinge-bending motion. • 2. Fluorophore screening. Thiol-reactive, environmentally sensitive fluorophores are attached to each cysteine mutant prepared in step 1. • 3. Evaluation of the glucose-mediated change of all the fluorescent conjugates prepared in step 2. Responses to ligand binding in which there is both a change in fluorescence emission intensity and spectral shape was essential for chemometric applications, because such changes enable ratiometric measurements. Changes in spectral shape typically are accompanied by a shift in the wavelength of the emission intensity maxima. Three classes of fluorescent responses are possible: • i. No response. • ii. Monochromatic response (emission intensity increases or decreases without a change in spectral shape) • iii.

Setting [5] is: read-out: Glucose appKd, Acrylodan conjugate, dichromatic ratiometry.
Where [6] appears, read: read-out: Glucose appKd, Badan conjugate, dichromatic ratiometry.
Where [7] appears, read: read-out: Glucose trueKd, Acrylodan conjugate, monochromatic titration curves.
[8] abbreviates: read-out: Glucose trueKd, Badan conjugate, monochromatic titration curves.
Setting [9] is: Acrylodan conjugate of ttGGBP.17C mutant.
Where [10] appears, read: Badan conjugate of ttGGBP.17C mutant.

B1: ttGGBP17C.2: affinity-tuning mutant, 17C background, SEQ ID NO: 67 (protein)
chain: MKQLNIGVAIYKFDDTCMTGVRNAMTAEAQGKAKLNMVDSQNSQPTQNDQVDLFITKKMNALAINPVDPTAAGTIIDKAKQANIPVVFFNREPLPEDMKKWDKVYYVGAKAEQSGILQGQIMADYWKAHPEADKNHDGVMQYVMLMGQPGHPDAILRTQYSIQTVKDAGIKVQELAKDYANWDRVTAHDKMAAWLSSFGDKIEAVFANNDDMALGAIEALKSAGYFTGNKYIPVVGVDATAPGIQAIKDGTLLGTVLNDAKNQAKATFNIAYELAQGITPTKDNIGYDITDGKYVWIPYKKITKDNISDAEQGGSHHHHHH
modifications: ttGGBP17C.2 (affinity-tuning mutant, 17C background (Table 6) with signal peptide replaced with M and GGSHHHHHH at C-terminus)
Take B1: the “S, selectivity = trueKd(galactose)/trueKd(glucose)” value in series [1] (Acrylodan conjugate) worked out at 0.28; in series [1] (Badan conjugate), 0.48. In addition, the Kd in series [1] (Acrylodan conjugate) was 5 mM; in series [1] (Badan conjugate) it was 5.2 mM; in series [3] (setting [5]), 15 mM; in series [3] (setting [6]), 8.6 mM; in series [3] (setting [7]), 18 mM; in series [3] (setting [8]), 10.8 mM. This molecule yielded an apoTm in series [2] (Badan conjugate) of 350 K. Moreover, the “Type of fluorescence response to glucose” value in series [4] (setting [9]) was “d (d, intensity decrease only)”; in series [4] (setting [10]) it was “r(h) (r(h), ratiometric (hypsochromic shift))”.

B2: ttGGBP17C.24: affinity-tuning mutant, 17C background, SEQ ID NO: 82 (protein)
chain: MKQLNIGVAIYKFDDTCMTGVRNAMTAEAQGKAKLNMVDSQNSQPTQNDQVDLFITKKMNALAINPVDRTAAGTIIDKAKQANIPVVFFNREPLPEDMKKWDKVYYVGAKAEQSGILQGQIMADYWKAHPEADKNHDGVMQYVMLMGQPGHQDAILRTQYSIQTVKDAGIKVQELAKDYANWDRVTAHDKMAAWLSSFGDKIEAVFANNDDMALGAIEALKSAGYFTGNKYIPVVGVDATAPGIQAIKDGTLLGTVLNDRKNQAKATFNIAYELAQGITPTKDNIGYDITDGKYVWIPYKKITKDNISDAEQGGSHHHHHH
modifications: ttGGBP17C.24 (affinity-tuning mutant, 17C background (Table 6) with signal peptide replaced with M and GGSHHHHHH at C-terminus)
As to B2, in series [1] (Badan conjugate), the Kd was 29 mM. In series [2] (Badan conjugate), this molecule had an apoTm of 344 K. In addition, the “Type of fluorescence response to glucose” value in series [4] (setting [10]) is given as “i (i, intensity increase only)”.

B3: ttGGBP17C.22: affinity-tuning mutant, 17C background, SEQ ID NO: 80 (protein)
chain: MKQLNIGVAIYKFDDTCMTGVRNAMTAEAQGKAKLNMVDSQNSQPTQNDQVDLFITKKMNALAINPVDRTAAGTIIDKAKQANIPVVFFNREPLPEDMKKWDKVYYVGAKAEQSGILQGQIMADYWKAHPEADKNHDGVMQYVMLMGQPGHQDAILRTQYSIQTVKDAGIKVQELAKDYANWDRVTAHDKMAAWLSSFGDKIEAVFANNDDMALGAIEALKSAGYFTGNKYIPVVGVDATAPGIQAIKDGTLLGTVLNDNKNQAKATFNIAYELAQGITPTKDNIGYDITDGKYVWIPYKKITKDNISDAEQGGSHHHHHH
modifications: ttGGBP17C.22 (affinity-tuning mutant, 17C background (Table 6) with signal peptide replaced with M and GGSHHHHHH at C-terminus)
For B3, in series [2] (Badan conjugate), the apoTm was 343 K. Besides, the Kd in series [3] (setting [6]) turned out to be 12 mM; in series [3] (setting [8]), 15 mM. Further, the “Type of fluorescence response to glucose” value in series [4] (setting [10]) was “i (i, intensity increase only)”.

B4: ttGGBP17C.10: affinity-tuning mutant, 17C background, SEQ ID NO: 75 (protein)
chain: MKQLNIGVAIYKFDDTCMTAVRNAMTAEAQGKAKLNMVDSQNSQPTQNDQVDLFITKKMNALAINPVDRTAAGTIIDKAKQANIPVVFFNREPLPEDMKKWDKVYYVGAKAEQSGILQGQIMADYWKAHPEADKNHDGVMQYVMLMGQPGHQDAILRTQYSIQTVKDAGIKVQELAKDYANWDRVTAHDKMAAWLSSFGDKIEAVFANNDDMALGAIEALKSAGYFTGNKYIPVVGVDATAPGIQAIKDGTLLGTVLNDAKNQAKATFNIAYELAQGITPTKDNIGYDITDGKYVWIPYKKITKDNISDAEQGGSHHHHHH
modifications: ttGGBP17C.10 (affinity-tuning mutant, 17C background (Table 6) with signal peptide replaced with M and GGSHHHHHH at C-terminus)
In turn, B4 returned an apoTm in series [2] (Acrylodan conjugate) of 351 K. For the same molecule, in series [4] (setting [9]), the “Type of fluorescence response to glucose” value is given as “d (d, intensity decrease only)”.

B5: ttGGBP17C.11: affinity-tuning mutant, 17C background, SEQ ID NO: 76 (protein)
chain: MKQLNIGVAIYKFDDTCMTGVRNAMTAEAQGKAKLNMVDSQNSQPTQNDQVDLFITKKMNALAINPVDRTAAGTIIDKAKQANIPVVFFNREPLPEDMKKWDKVYYVGAKAEQSGILQGQIMADYWKAHPEADKNHDGVMQYVMLMGQPGHQDAILRTQYSIQTVKDAGIKVQELAKDYANWDRVTAHDKMAAWLSSFGDKIEAVFANNDDMALGAIEALKSAGYFTGNKYIPVVGVDAAAPGIQAIKDGTLLGTVLNDAKNQAKATFNIAYELAQGITPTKDNIGYDITDGKYVWIPYKKITKDNISDAEQGGSHHHHHH
modifications: ttGGBP17C.11 (affinity-tuning mutant, 17C background (Table 6) with signal peptide replaced with M and GGSHHHHHH at C-terminus)
As for B5, in series [2] (Acrylodan conjugate), the apoTm is given as 348 K. Further, the Kd in series [3] (setting [5]) and in series [3] (setting [7]) was 0.04 mM in each case. Also, the “Type of fluorescence response to glucose” value in series [4] (setting [9]) is “d (d, intensity decrease only)”.

B6: ttGGBP17C.5: affinity-tuning mutant, 17C background, SEQ ID NO: 70 (protein)
chain: MKQLNIGVAIYKFDATCMTGVRNAMTAEAQGKAKLNMVDSQNSQPTQNDQVDLFITKKMNALAINPVDRTAAGTIIDKAKQANIPVVFFNREPLPEDMKKWDKVYYVGAKAEQSGILQGQIMADYWKAHPEADKNHDGVMQYVMLMGQPGHQDAILRTQYSIQTVKDAGIKVQELAKDYANWDRVTAHDKMAAWLSSFGDKIEAVFANNDDMALGAIEALKSAGYFTGNKYIPVVGVDATAPGIQAIKDGTLLGTVLNDAKNQAKATFNIAYELAQGITPTKDNIGYDITDGKYVWIPYKKITKDNISDAEQGGSHHHHHH
modifications: ttGGBP17C.5 (affinity-tuning mutant, 17C background (Table 6) with signal peptide replaced with M and GGSHHHHHH at C-terminus)
B6: the apoTm turned out to be 348 K in series [2] (Acrylodan conjugate) and 345 K in series [2] (Badan conjugate). For the same molecule, the Kd in series [3] (setting [5]) came out at 6 mM; in series [3] (setting [6]), 16 mM; in series [3] (setting [7]), 6 mM; in series [3] (setting [8]) it was 16 mM. The “Type of fluorescence response to glucose” value in series [4] (setting [9]) is given as “r(h) (r(h), ratiometric (hypsochromic shift))”; in series [4] (setting [10]) it was “r(h) (r(h), ratiometric (hypsochromic shift))”.

B7: ttGGBP17C.29: affinity-tuning mutant, 17C background, SEQ ID NO: 87 (protein)
chain: MKQLNIGVAIYKFDDTCMTGVRNAMTAEAQGKAKLNMVDSQNSQPTQNDQVDLFITKKMNALAINPVDRTAAGTIIDKAKQANIPVVFFNREPLPEDMKKWDKVYYVGAKAEQSGILQGQIMADYWKAHPEADKNHDGVMQYVMLMGQPGHQDAILRTQYSIQTVKDAGIKVQELAKDYANWDRVTAHDKMAAWLSSFGDKIEAVFANNDDMALGAIEALKSAGYFTGNKYIPVVGVDATAPGIQAIKDGTLLGTVLNDSKNQAKATFNIAYELAQGITPTKDNIGYDITDGKYVWIPYKKITKDNISDAEQGGSHHHHHH
modifications: ttGGBP17C.29 (affinity-tuning mutant, 17C background (Table 6) with signal peptide replaced with M and GGSHHHHHH at C-terminus)
On to B7, for which the apoTm in series [2] (Badan conjugate) came to 343 K. The “Type of fluorescence response to glucose” value in series [4] (setting [10]) was “i (i, intensity increase only)”.
